# Test results: the DeepSol protein solubility set
# Experiment: soluble on expression in E. coli; label from the status in PepcDB or PDB records
row,Sequence,soluble on expression in E. coli
1,MGHHHHHHHHHHSSGHIEGRHMILLEKTQEKKINDKEELIVKEEVETNWDYGCNPYERKIEDLIKYGVVVVDKPRGPTSHEVSTWVKKILNLDKAGHGGTLDPKVTGVLPVALERATKTIPMWHIPPKEYVCLMHLHRDASEEDILRVFKEFTGRIYQRPPLKAAVKRRLRIRKIHELELLDKDGKDVLFRVKCQSGTYIRKLCEDIGEALGTSAHMQELRRTKSGCFEEKDAVYLQDLLDAYVFWKEDGDEEELRRVIKPMEYGLRHLKKVVVKDSAVDAICHGADVYVRGIAKLSKGIGKGETVLVETLKGEAVAVGKALMNTKEILNADKGVAVDVERVYMDRGTYPRMWKRKK,soluble
2,MSLKYVDEFRNGDYAKTLVRLIQKLTKKKINIMEICGSHTMAIFRYGIKDILPSNIRLISGPGCPVCVTSQGYIDTALELSLSREVIIATFGDMIRVPGTKTSLMKRKAEGADIKIVYSPMDALTLAENNPLKKVVFLSVGFETTTPITAITILEAKKRGVKNIFFLTSNKMVPPVMRTLVEDKELNITGFLLPGNVSAIIGKKPYEFLSSEYNVSGVVTGFEPLDILKGLKVLIDIINNNASVIVNEYKRVVRDEGNVTALRYIKEVFEVTDSTWRGIGNIEKSGYKINTEYEQFDAVKQFNINYKECDSSSECRCGDILKGKITPIECSLFKKACTPDHPVGSCMVSYEGVCAAYYKFLNTEGHHHHHH,not soluble
3,MGSDKIHHHHHHMRNILIALCLSLTALNSHAADQIERMAADKMQSYKESKINWKDDPILPKGAKSALILGDPSKPGVFIAWLKFPANYPIPAHTHPFTEVITVLKGKLGNGMGEVLDKKKGETLNVGESFVLPAGHAHYVWTGNEETIIELIATGPWDITYSNPKDDPRTK,not soluble
4,MSTHNTHINETMQRNGRNNMAEHRGGSGNFAEDREKASDAGRKGGQHSGGNFKNDPQRASEAGKKGGQQSGGNKSGKS,not soluble
5,MGSDKIHHHHHHMITQQQIETVLGQIIDPTTGKDYLTSKAVSDIQIKQDNVSVNIELGYPAKSVLNTVHQQIEQAIRTVPGIGSITVNVTSNIIAHSAQRKLKLIPGVKNVIAVASGKGGVGKSATAVNLALALAAEGATVGILDADIYGPSQPQMLGVSGRPDSPDGKTIEPMQAHGIQMMSIGLLIDVETPMVWRGPMVTQALQQLLNDTRWHDLDYLVIDLPPGTGDIQLTLAQKIPVTGAVIVTTPQDIALLDARKGLKMFEKVGIPILGIVENMSLHTCSHCGHTEPIFGTGGGEKMCRDYNVELLGALPLDIRIREHTDAGKPSVVAEPDGQIADIYRTIARLVAAKISDMARDYSDVFTQIIMEDD,not soluble
6,MSLNADTLEDIKKAGVIKAATEMQFPPFDFLEGDKYVGVDRDLMDEVAKELGVKVEYIDLPWTSVLPGLEAGKFDLVIAPVTITKERLARYAFTLPISEGTAALMKRADDDSITKPEDIAGKTIGGGKGTSQLGQIKEYAAALPGKVEFKEYVDSNQSYADLAAGRVDASVNSYPNLAYAAAQRPETFAVVLPPFGKTTYFSWVSRLGEKDASLVEAVNAALLKLGEDGRMSAIHEKWFGKGVDLPKEGHHHHHH,soluble
7,MSLLLRMMGWKALVPSANPLQSVICVAPHTSNYDFLLGKLYYWSIGRKAGFLMKKEWFFFPLGPIFRAMGGIPIDRSKRGSTVEQVREFFQRHAVFNVAITPEGTRDYSPQWKTGFYRIAVGAGVPIQLAVIDYSYKEMSVFELFTPTGNEEADIAYIRSRYRASQARHPRNFAESEIEGHHHHHH,soluble
8,IRTHLNLPSDKKVIMYAPTWRDDEFVSKGKYLFELKIDLDNLYKELGDDYVILLRMHYLISNALDLSGYENFAIDVSNYNDVSELFLISDCLITDYSSVMFDYGILKRPQFFFAYDIDKYDKGLRGFYMNYMEDLPGPIYTEPYGLAKELKNLDKVQQQYQEKIDAFYDRFCSVDNGKASQYIGDLIHK,not soluble
9,MSLTGREILEKLERREFTREVLKEALSINDRGFNEALFKLADEIRRKYVGDEVHIRAIIEFSNVCRKNCLYCGLRRDNKNLKRYRMTPEEIVERARLAVQFGAKTIVLQSGEDPYYMPDVISDIVKEIKKMGVAVTLSLGEWPREYYEKWKEAGADRYLLRHETANPVLHRKLRPDTSFENRLNCLLTLKELGYETGAGSMVGLPGQTIDDLVDDLLFLKEHDFDMVGIGPFIPHPDTPLANEKKGDFTLTLKMVALTRILLPDSNIPATTAMGTIVPGGREITLRCGANVIMPNWTPSPYRQLYQLYPGKICVFEKDTACIPCVMKMIELLGRKPGRDWGGRKRVFETVEGHHHHHH,soluble
10,MQLFDLPLDQLQTYKPEKTAPKDFSEFWKLSLEELAKVQAEPDLQPVDYPADGVKVYRLTYKSFGNARITGWYAVPDKEGPHPAIVKYHGYNASYDGEIHEMVNWALHGYATFGMLVRGQQSSEDTSISPHGHALGWMTKGILDKDTYYYRGVYLDAVRALEVISSFDEVDETRIGVTGGSQGGGLTIAAAALSDIPKAAVADYPYLSNFERAIDVALEEPYLEINSFFRRNGSPETEVQAMKTLSYFDIMNLAYRVKVPVLMSIGLIDKVTPPSTVFAAYNHLETKKELKVYRYFGHEYIPAFQTEKLAFFKQHLKG,soluble
11,MASLSYPKTTMQIQLGANLKPYHTFGIEQLAAQLVVAESIDDLKALYCSAEWASLPKLIIGKGSNMLFTCHYTGMIVVNRLNGIEHQQDDDYHRLHVAGGEDWPSLVSWCVEQGIGGLENLALIPGCAGSAPIQNIGAYGVEFKDVCDYVEYLCLETGTVKRLTMEECQFGYRDSIFKHQLYQKAVVTAVGLKFAKAWQPIIQYGPLKDLSSDCAIHDVYQRVCATRMEKLPDPAVMGNAGSFFKNPVISQQAFARLQIEHPDVVAYPAEQGVKVAAGWLIDQAGLKGHQIGGAKVHPKQALVIVNTGDASAQDVLMLAADIQQRVFNCYGIELEHEVRFIGESEETNLKQWMSEQA,soluble
12,MKYKRVLLKLSGEFLTRNGFGIEPEATQALAREIKAAYDTGVQLAIVIGAGNLWRGARQGVGMDRATADYIGMLATIMNALALQDALESLGVPTRVQTALTITQVAEPYIRRRALRHLEKERIVIFGGGTGNPFFSTDTAAALRALEVGAEVVLMAKNKVDGVYSDDPRKNPEAVRFDELTYLEVLNRGLQVMDTTAITLCMEAGLPIVVFDIFKPGALVGIIQGEKVGTLIH,soluble
13,MGSDKIHHHHHHMRTKIGIYLSSEPESGGMFQYGLSILDAAASLPRDRYQTTVAFISERWNEHLKFRNLEHFQISPNFLWRIFKGKGWLLLNLPISFWRWILINLNPFFYKRLIQEGCDLWLFPSQDTWTYLLRLNSLGVVHDLMHRYEKKFSEVAAPFEYRRRERHYRAMCEYSKGILVDSNYGKRQVLESYDAKPDFIHVLPYVPPEYINIKNAPIDFDSRYNLPRKFLFYPAQFWEHKNHHNLLAALAHLKRELRDIHVVLVGSKKNAYKKTLGYINSMNLSDHVIILGYVPNEDMAEFYRRARALVFPSFFGPTNIPPLEACAAGCPLAVSNIYGMPEQLGDAALFFNPHSVEEIHLAMKRLWIDDALCRQLSMNGKKWAKAWNQNSFNRQFQVIIEEVLKNPNT,not soluble
14,MKLTGFLKQNVRVRFAPSPTGHLHIGGLRTAFFNYLFAKKYGGDFILRIEDTDRTRFVDDAQDQIYSSLNFYNLLPDEGPREGGKFGPYEQSKRLEIYRNAAYRLIDSGHAYRCFCSENRLDLLRKTAEKRGEIPKYDRKCANLSSRDAVKMEQNGEKFVIRFKLDKQNVQFHDEVFGSVNQFIDESDPVLLKSDGFPTYHLANVIDDRKMEISHVIRGMEWLSSTGKHTILYKAFNWTPPKFVHLSLIMRSATKKLSKRDKDAFVSYYSEQLGALPEAVLNLMIRNGAGIRNFDAEHFYSLDEMIEQFDLSLLGRRNLLLDSDVLQKYSRMAFQKSDFKELYPRIIDILNKKSNYSTSREDIQKIVTFLKAKEENFGFLSSLSTEFSWFFTRPQSSQLLKESHPNVDLRNILNSLLEIEVFNSESLEYLAKNHQLNLAKAMGIVRISLIGSKKGPPISELVEFFGMTECHRRIRIMQELL,not soluble
15,MIPADGWRHVGDQWLVSTDGAKIHASELADHLLADFGYAIVYDEMAEPVDLYRTQRFANDKQRLILTADQLLCADPQCTRAAYRGQAHHIEAWKNGGDTNLKNLCLTCGPHNALNDDDHAKGKHKNGHYVRDKYNGRIGWQPPDPTKSIRFNNHVLAQKSGRSWAIRHFGL,not soluble
16,MQEYSVEVALVHPDDMVNLFGSNERHLKLIEENLGVVIHARTERVQILGETEEAIELARLTIKALLVLVGRGMIVNTSDVVTALSMAQNGNIDKFVALYEEEIIKDSYGKPIRVKTLGQKVYVDSVKSHDIVFGIGPAGTGKTFLAVTLAITALKRGQVKRIILTRPAVEAGESLGFLPGDLKEKVDPYLRPVYDALYQILGKEQTSRLMEREIIEIAPLAYMRGRTLDDAFVILDEAQNTTIMQMKMFLTRLGFNSKMIVNGDISQIDLPKNVKSGLVDASEKLKDIKQIDFVYLSAKDVVRHPVVAEIINAYEESTDVR,not soluble
17,MSLQDSLFQTETGFQPLAARMRPTSLEGYVGQAHLVGPGKPLRRAVEQGQLHSMILWGPPGVGKTTFARLLANVGDLSFETISAVLSGVKEIREVVERARNRKQSQGRDTLLFVDEVHRFNKSQQDAFLPHIEDGTFIFVGATTENPSFELNSALLSRTRVYVLKNLEAADIRRLLDSALESEQGFAGQLRVEESVLATMAEASGGDARRALNILEVAADLAEPDDDGNNRVTAQTLEQVLQTSLRRFDKGGDVFYDQISALHKSVRGSNPDGSLYWLCRMLDGGCDPLYVARRLVRIASEDIGNADPRALQITLQAWDAQERLGSPEGELALAQAVTYLALAPKSNAVYKAYNQCIADIRSDPDYEVPVHLRNAPTKLLKSMGHGEEYRYAHDEPDAYAAGEAYLPEAIYQRRYYQPVQRGLEIKLAEKRERLDSLDANSPKKREGHHHHHH,soluble
18,MDDERKRKKYTLYLHPEKAADFQTLEAIESVPRSERGELFRNAFISGMALHQLDPRLPVLLTAILSEEFSADQVVTLLSQTTGWKPSQADIRAVLTELGASQSVEKMPPSATDSVQEAMNDVRLKMKKLF,soluble
19,GMAYGSSNPEDLAKNFTKDLYSGDTKSVMSYIDLSEAKSDEEKTFVSDKITQVVAENAAKAKRMGGVKDIQIEEKTINKDSAKIRVLVLFNNDNNQSSNVFLAKKDRKWLVLLK,soluble
20,AHHHHHHGSSLGGSADDTYLHEIIKKAYEAGIVIVAAAGNEGASSPSYPAAYPEVIAVGATDINDQVPYWSNRQPEVSAPGVDILSTYPDDTYETLSGTSMATPHVSGVVALIQAAYYLKYGKVLPVGTFDDMSTNTVRGILHLAVDDLGDPGWDIYYGYGIIRADKAIQLALF,not soluble
21,AHHHHHHGSSKDRMVELLQEHFELNLYEARAYVALVAFGVLTPAELASVSEVPAPRTYDVLRSLEKKGFAMTQPGKTNKYRPVHPANVLEKFIQDWQERVKEELEAKKKAKEELLELMAPLIETEVPKYGVERVWVVRGIKNSTLKTKEMLEEAQNEILLADDGFIAVNLEDDIIKAVDRGVKTKILLTKNLLPRLKASKIIDYAKEGKLELRALDKFDLPMLICDEEVFFALEDLAARYFNYETQVWIKDHRVVALFKEKFNEYWEKAEKV,soluble
